In US20210163606A1:

Target: NRP2 endogenous on U251 glioblastoma cells and on human lymphatic endothelial cells (HLEC) (human) (UniProt O60462)
Test: cell-based or functional assay

Chain of NRP2 endogenous on U251 glioblastoma cells and on human lymphatic endothelial cells (HLEC) (human) (O60462 21-931): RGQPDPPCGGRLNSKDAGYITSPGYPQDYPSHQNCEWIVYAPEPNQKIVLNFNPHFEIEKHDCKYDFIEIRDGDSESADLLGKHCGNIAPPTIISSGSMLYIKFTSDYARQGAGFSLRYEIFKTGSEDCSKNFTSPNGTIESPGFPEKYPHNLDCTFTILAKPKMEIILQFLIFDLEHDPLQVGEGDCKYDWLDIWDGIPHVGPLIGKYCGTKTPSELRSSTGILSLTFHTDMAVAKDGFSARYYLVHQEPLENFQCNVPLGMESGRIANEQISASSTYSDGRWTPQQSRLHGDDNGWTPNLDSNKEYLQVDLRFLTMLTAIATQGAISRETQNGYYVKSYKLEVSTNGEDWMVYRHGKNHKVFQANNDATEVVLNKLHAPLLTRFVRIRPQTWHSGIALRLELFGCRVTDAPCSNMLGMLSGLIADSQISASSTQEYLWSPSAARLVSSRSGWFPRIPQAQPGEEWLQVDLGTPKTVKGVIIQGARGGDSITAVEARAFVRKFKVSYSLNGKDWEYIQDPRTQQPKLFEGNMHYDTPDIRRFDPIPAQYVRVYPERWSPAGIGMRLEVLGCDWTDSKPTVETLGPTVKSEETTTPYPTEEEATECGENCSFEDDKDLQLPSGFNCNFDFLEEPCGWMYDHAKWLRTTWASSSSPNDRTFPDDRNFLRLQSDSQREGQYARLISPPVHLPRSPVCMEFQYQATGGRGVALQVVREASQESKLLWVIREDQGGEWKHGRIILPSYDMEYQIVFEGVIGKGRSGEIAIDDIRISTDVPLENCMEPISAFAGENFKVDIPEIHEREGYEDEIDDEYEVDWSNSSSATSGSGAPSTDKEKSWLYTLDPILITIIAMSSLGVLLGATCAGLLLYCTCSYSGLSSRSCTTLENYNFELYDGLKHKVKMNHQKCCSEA

## Semaphorin 3F (SEMA3F) (from UniProt Q13275 19-779) (ligand)
  decrease in intracellular phospho-Akt levels in U251 cells: 50%
